In US20060294608A1:

Target: CHO derived N' FLAG-mNR6 (N-terminal FLAG-tagged murine NR6) (mouse) (UniProt Q9JM58)
Assay: Biosensor (BiaCore) with M2 immobilised, after passage over M2 affinity resin

UniProt Q9JM58, sequence (Q9JM58 other isoform, or with tags, fused parts or gaps limits assumed): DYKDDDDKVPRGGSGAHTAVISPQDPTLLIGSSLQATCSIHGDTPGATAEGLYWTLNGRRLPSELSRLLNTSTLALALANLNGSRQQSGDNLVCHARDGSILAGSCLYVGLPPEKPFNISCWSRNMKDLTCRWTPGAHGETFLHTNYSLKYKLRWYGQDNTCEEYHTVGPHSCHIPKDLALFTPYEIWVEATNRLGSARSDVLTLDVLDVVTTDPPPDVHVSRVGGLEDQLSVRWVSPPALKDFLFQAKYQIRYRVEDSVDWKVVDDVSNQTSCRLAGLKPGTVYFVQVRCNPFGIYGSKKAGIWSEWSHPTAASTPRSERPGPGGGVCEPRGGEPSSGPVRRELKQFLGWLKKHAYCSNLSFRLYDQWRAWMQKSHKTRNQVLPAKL

M2 binding remaining in the unbound fraction: 20%
Substance: anti FLAG peptide M2 antibody (Kodak Eastman, USA)
